Experimental data published in the Human Domainome abundance scans (Beltran et al. 2025).
± gives the uncertainty stated by the source.

B1: Lysine-specific demethylase 5C, residues 319 to 373; numbered along this chain, P41229 (parent)
chain: AQFIESYVCRMCSRGDEDDKLLLCDGCDDNYHIFCLLPPLPEIPKGVWRCPKCVM
B2: Tripartite motif-containing protein 49C, residues 87 to 133; numbered along this chain, P0CI26 (parent)
chain: SSEEQMCGTHRETKKIFCEVDRSLLCLLCSSSQEHRYHRHRPIEWAA

Variants of: B1
Assay: abundance fitness (aPCA) (normalised: wild type 0, dead -1); higher = more abundant; growth selection in yeast, the domain comes from the species named
Settings: Homo sapiens

Variant | abundance fitness
N30L | -0.238 ± 0.092
L36C | 0.232 ± 0.13
L36D | -0.898 ± 0.32
W48S | -0.839 ± 0.15
W48L | -0.849 ± 0.15
W48F | -0.253 ± 0.22
W48V | -0.78 ± 0.14
G46P | -0.42 ± 0.31
G46Y | -0.366 ± 0.18
G46R | -0.083 ± 0.15
G46S | -0.204 ± 0.13
H32W | -0.881 ± 0.18
H32F | -0.697 ± 0.22
H32I | -0.859 ± 0.23
H32V | -0.723 ± 0.11
D16A | -0.063 ± 0.12
D29L | -0.101 ± 0.19
D29A | 0.06 ± 0.43
P38C | -0.166 ± 0.13
P38Y | -0.416 ± 0.18

Variant | abundance fitness
P38K | -0.283 ± 0.26
I43R | -0.022 ± 0.092
I43T | -0.467 ± 0.17
I43S | -0.082 ± 0.11
P39D | -0.233 ± 0.18
P39V | -0.129 ± 0.11
P39H | -0.787 ± 0.3
P39R | -0.164 ± 0.12
P39Y | -0.59 ± 0.21
P39M | -0.292 ± 0.18
Y7H | -0.09 ± 0.16
A1W | -0.242 ± 0.34
M55G | -0.61 ± 0.24
M55V | 0.015 ± 0.17
L40F | -0.678 ± 0.46
L21I | -0.044 ± 0.12
L21Q | -0.353 ± 0.19
L21M | -0.167 ± 0.14
L21E | -0.531 ± 0.27

Variants of: B2
Assay: as above
Settings: Homo sapiens

Variant | abundance fitness
SSERQMCGTHRETKKIFCEVDRSLLCLLCSSSQEHRYHRHRPIEWAA [E4R] | -0.252 ± 0.081
SSEQQMCGTHRETKKIFCEVDRSLLCLLCSSSQEHRYHRHRPIEWAA [E4Q] | -0.726 ± 0.23
SSEIQMCGTHRETKKIFCEVDRSLLCLLCSSSQEHRYHRHRPIEWAA [E4I] | -0.142 ± 0.15
SSEDQMCGTHRETKKIFCEVDRSLLCLLCSSSQEHRYHRHRPIEWAA [E4D] | -0.035 ± 0.16
SSEAQMCGTHRETKKIFCEVDRSLLCLLCSSSQEHRYHRHRPIEWAA [E4A] | -0.224 ± 0.13
SSEYQMCGTHRETKKIFCEVDRSLLCLLCSSSQEHRYHRHRPIEWAA [E4Y] | -0.35 ± 0.21
SSEHQMCGTHRETKKIFCEVDRSLLCLLCSSSQEHRYHRHRPIEWAA [E4H] | -0.351 ± 0.18
SSEGQMCGTHRETKKIFCEVDRSLLCLLCSSSQEHRYHRHRPIEWAA [E4G] | -0.68 ± 0.091
SSELQMCGTHRETKKIFCEVDRSLLCLLCSSSQEHRYHRHRPIEWAA [E4L] | -0.278 ± 0.11
SSEPQMCGTHRETKKIFCEVDRSLLCLLCSSSQEHRYHRHRPIEWAA [E4P] | -0.196 ± 0.12
SSEVQMCGTHRETKKIFCEVDRSLLCLLCSSSQEHRYHRHRPIEWAA [E4V] | -0.093 ± 0.097
SSEKQMCGTHRETKKIFCEVDRSLLCLLCSSSQEHRYHRHRPIEWAA [E4K] | -0.502 ± 0.19
